Assay results reported in publication PMC12931233.

Key:
[1] = immunoblot of endogenous CD47, MHCC97-H and HCCLM3; settings: control: matched control (untreated/DMSO, scramble, vector)
[2] = IP and ubiquitin immunoblot
[3] = CHX chase immunoblot, 293T; half-life; settings: glycan lost
[4] = CHX chase, rescued MHCC97-H; half-life; settings: glycan changed form; control: scramble / vector, WT CD47 rescued cells
[5] = cell-surface CD47 by flow cytometry and immunofluorescence; settings: glycan changed form; control: scramble / vector
[6] = immunoblot, reconstituted MHCC97-H; settings: glycan lost; control: WT CD47 reconstituted cells
[7] = CHX chase immunoblot, reconstituted MHCC97-H; half-life; settings: glycan lost; control: WT CD47 reconstituted cells
[8] = Transwell chemotaxis; CCR7 on DCs; settings: glycan lost; control: CD47 WT reconstituted Hepa1-6
[9] = ubiquitin immunoblot, reconstituted Hepa1-6; settings: glycan lost; control: WT CD47 reconstituted Hepa1-6
[10] = Transwell co-culture with BMDCs, flow cytometry; settings: glycan lost; control: CD47 WT reconstituted Hepa1-6

## CD47: shFUT8
[1]; glycan changed form
  expression_or_secretion: decreases

## CD47: N34Q
[2]; glycan lost, control: WT CD47
  other: ubiquitination level: no change
[3]; control: Flag-CD47 WT
  degradation_or_half_life: no change

## CD47: HA-FUT8 WT overexpression
[2]; glycan changed form, control: untreated / vector
  other: ubiquitination level: decreases

## CD47: FUT8 overexpression
[4]
  degradation_or_half_life: increases
[5]
  expression_or_secretion: increases

## CD47: N73Q
[2]; glycan lost, control: WT CD47
  other: ubiquitination level: no change
[3]; control: Flag-CD47 WT
  degradation_or_half_life: no change

## CD47: FUT8 depletion
[4]
  degradation_or_half_life: decreases

## CD47: 2F-Fuc
[1]; glycan changed form
  expression_or_secretion: decreases

## CD47: N23Q
[2]; glycan lost, control: WT CD47
  other: ubiquitination level: no change
[3]; control: Flag-CD47 WT
  degradation_or_half_life: no change

## CD47: HA-FUT8 overexpression
[1]; glycan changed form
  expression_or_secretion: increases

## CD47: N111T
[6]
  expression_or_secretion: decreases
[7]
  degradation_or_half_life: decreases

## CD47: tunicamycin (TM)
[2]; glycan lost, control: untreated / vector
  other: ubiquitination level: increases
[3]; control: DMSO
  degradation_or_half_life: decreases
[1]; glycan lost
  expression_or_secretion: decreases

## CD47: N111Q
[2]; glycan lost, control: WT CD47
  other: ubiquitination level: increases
[6]
  expression_or_secretion: decreases
[3]; control: Flag-CD47 WT
  degradation_or_half_life: decreases
[7]
  degradation_or_half_life: decreases

## CD47: FUT8 ablation
[5]
  expression_or_secretion: decreases

## CD47: N50Q
[2]; glycan lost, control: WT CD47
  other: ubiquitination level: no change
[3]; control: Flag-CD47 WT
  degradation_or_half_life: no change

## CD47: N111A
[6]
  expression_or_secretion: decreases
[7]
  degradation_or_half_life: decreases

B1: CD47 (murine): N109Q (protein)
parent chain: MWPLAAALLLGSCCCGSAQLLFSNVNSIEFTSCNETVVIPCIVRNVEAQSTEEMFVKWKLNKSYIFIYDGNKNSTTTDQNFTSAKISVSDLINGIASLKMDKRDAMVGNYTCEVTELSREGKTVIELKNRTVSWFSPNEKILIVIFPILAILLFWGKFGILTLKYKSSHTNKRIILLLVAGLVLTVIVVVGAILLIPGEKPVKNASGLGLIVISTGILILLQYNVFMTAFGMTSFTIAILITQVLGYVLALVGLCLCIMACEPVHGPLLISGLGIIALAELLGLVYMKFVASNQRTIQPPRNR
[8]
  other: CD103+ DC migration and CCR7 expression: increases
[9]
  other: ubiquitination level: increases
[10]
  other: NK cell TNF-α and GZMB expression: increases

B2: CD47 (murine): N109A (protein)
parent chain: MWPLAAALLLGSCCCGSAQLLFSNVNSIEFTSCNETVVIPCIVRNVEAQSTEEMFVKWKLNKSYIFIYDGNKNSTTTDQNFTSAKISVSDLINGIASLKMDKRDAMVGNYTCEVTELSREGKTVIELKNRTVSWFSPNEKILIVIFPILAILLFWGKFGILTLKYKSSHTNKRIILLLVAGLVLTVIVVVGAILLIPGEKPVKNASGLGLIVISTGILILLQYNVFMTAFGMTSFTIAILITQVLGYVLALVGLCLCIMACEPVHGPLLISGLGIIALAELLGLVYMKFVASNQRTIQPPRNR
[10]
  other: NK cell TNF-α and GZMB expression: increases

B3: CD47 (murine): N109T (protein)
parent chain: MWPLAAALLLGSCCCGSAQLLFSNVNSIEFTSCNETVVIPCIVRNVEAQSTEEMFVKWKLNKSYIFIYDGNKNSTTTDQNFTSAKISVSDLINGIASLKMDKRDAMVGNYTCEVTELSREGKTVIELKNRTVSWFSPNEKILIVIFPILAILLFWGKFGILTLKYKSSHTNKRIILLLVAGLVLTVIVVVGAILLIPGEKPVKNASGLGLIVISTGILILLQYNVFMTAFGMTSFTIAILITQVLGYVLALVGLCLCIMACEPVHGPLLISGLGIIALAELLGLVYMKFVASNQRTIQPPRNR
[10]
  other: NK cell TNF-α and GZMB expression: increases
